Source: patent publication US9603896B2, “Peptide compounds and methods of production and use thereof” (priority 2012, dated 2017)
Ends that are not written are not given here.

Assays:
[1] = assay type: physicochemical
Description: In the initial stages of the work leading to the presently disclosed and claimed inventive concept(s), sequential addition of amino acids was used to make the peptides. Three candidate peptides (CAP3720-44 (SEQ ID NO:1), CAP3720-44ser26 (SEQ ID NO:2), and CAP3720-44ser42 (SEQ ID NO:5)) were synthesized. […] In one embodiment, a fragment Fmoc condensation strategy was used rather than sequential addition of amino acids. In the fragment condensation method, three small fragments were made and condensed together to form a CAP3720-44ser42 amino acid sequence (SEQ ID NO:5). The rationale behind this reasoning was that three small fragments could be synthesized in a highly purified form and linked together, thereby overcoming some of the aggregation problems. The product from this synthesis was dialyzed against 1% acetic acid and lyophilized and determined to be approximately 50% pure. Antimicrobial activity of this peptide was approximately half of what was normally obtained. In one embodiment, the dialysis procedure was changed to employ a dilute tri-fluoro acetic acid (TFA) solution (e.g., 0.1%), which obtained a product with stronger antimicrobial activity and greater purity (about 80%). In the next production, a cysteine residue was used that was protected during synthesis and then de-protected in the final stages of purification, in an attempt to improve stability.
When the arginines were linked to the peptide to form the peptide backbone (SEQ ID NOs: 18-20), there was marked increase in solubility of the peptides and very potent activity (capable of reducing bacterial load from 1×10^6 CFU/ml to […] CFU/ml, a 5 log reduction). […] Much time and experimental effort was spent in the laboratory exploring purification techniques, but yield and purity could not be increased beyond about 70%. […] Finally, after extensive additional experimentation, another solubilizing moiety was added to the peptides, and this addition increased half-life, solubility, and purity of the peptides. […]

[2] = test system: Pseudomonas clinical isolate B64; experiment: BIOSCREEN C™ growth assay, antibiotic and peptide combinations; assay type: cell-based, Pseudomonas aeruginosa
Protocol: Cefotaxime (Cefo) and peptide combinations included a constant amount of Cefotaxime (2.81 μg/ml) with suboptimal amounts of peptide (0, 0.34, 1.01, and 3.04 μg/ml).
The peptide and antibiotics were set up in the wells of the microtiter plate at starting ratios of MIC equivalents of antibiotic:peptide at 3:1, 1:1, and 1:3. They were serially diluted to concentrations well below suboptimal/sublethal levels of the antibiotic and peptide. The organism was added (1×10^5 CFU/well), the BIOSCREEN C™ assay (Growth Systems USA, Piscataway, N.J.) was performed, and data was collected over 24 hours.

mouse cornea = experiment: In vivo model of corneal wound healing (corneal epithelial abrasion)
Protocol: The in vivo model of wound healing was carried out using a disposable biopsy punch (2 mm, Miltex, York, Pa.) to demarcate the mouse cornea and a 0.5 mm burr using the AlgerBrush II (The Alger Company, Inc., Lago Vista, Tex.) to remove the corneal epithelium. The corneal abrasions were treated at 0 and 16 hours with peptide 95-122 (10^−5 M), peptide 120-146WH (10^−6 M and 10^−8M), peptide 120-146WR ((10^−6 M and 10^−8M), or vehicle control (0.9% sodium chloride, pH 5.5, Baxter, Deerfield, Ill.). Corneal abrasions were visualized using sterile fluorescein sodium ophthalmic strips USP (Fluorets®, Chauvin Laboratory, Aubenas, France) dampened with sterile PBS. Images were taken at 0, 16, and 24 hours immediately following fluorescein staining.
Mice were anesthetized using ketamine (100 mg/kg; Bionichepharma, LLC., St. Lake Forrest, Ill.) and xylazine ([…]; Rompun; Bayer Corp., Shawnee Mission, Kans.), and the right cornea was wounded as follows. A disposable biopsy punch (2 mm, Miltex, York, Pa.) was used to demarcate the mouse cornea. The corneal epithelium was carefully removed within the 2 mm demarcated area with a 0.5 mm burr using the AlgerBrush II (The Alger Company, Inc., Lago Vista, Tex.). The corneal abrasions were treated at 0 and 16 hours with HB-EGF (250 ng/ml), rCAP37 (250 ng/ml), or vehicle control (0.9% sodium chloride, pH 5.5, Baxter, Deerfield, Ill.). Corneal abrasions were visualized using sterile fluorescein sodium ophthalmic strips USP (FLUORETS®, Chauvin Laboratory, Aubenas, France) dampened with sterile PBS. Images were taken at 0, 16, 24, and 48 hours immediately following fluorescein staining using a surgical microscope equipped with a camera (Carl Zeiss OPMI VISU 140, Carl Zeiss Surgical, Inc., Oberkochen, Germany). The areas of the open wound were quantitated using ImageJ software (US National Institutes of Health), and the results were reported as the percentage of wound closure.
Whole mouse eyes were collected for histology at 0, 6, 16, 24, and 48 hours post wounding and were immediately placed in Prefer fixative (Anatech LTD., Battle Creek, Mich.) for 20 minutes before being transferred to 70% ethanol. Tissues were paraffin-embedded and cut at a thickness of 5 μm, mounted on SUPERFROSTPLUS® slides (Statlab Medical Products, Lewisville, Tex.), and subsequently deparaffinized, rehydrated, and washed in deionized water. Sections were stained with hematoxylin (Leica Microsystems, Buffalo Grove, Ill.) and rinsed twice in deionized water before being washed in Blue Buffer (Leica Microsystems). The sections were finally washed in deionized water and 95% ethanol prior to being counterstained with eosin (Leica Microsystems). Sections were dehydrated in ethanol and cleared in xylene.

[3] = test system: human corneal epithelial cell (HCEC); experiment: HCEC chemotaxis, modified Boyden chemotaxis chamber assay; assay type: cell-based; details: 120-146QH at 10^−4, 10^−6, 10^−8, 10^−10 M; 120-146QR at 10^−6, 10^−8 M; HB-EGF 50 ng/ml; rCAP37 250 ng/ml; 3 hours at 37° C
Protocol: The effect of buffer control (0.1% BSA in Gey's buffer), heparin binding-epidermal growth factor (HB-EGF, 50 ng/ml), recombinant CAP37 (rCAP37, 250 ng/ml), 120-146QH (10^−12M, 10^−10 M, 10^−8 M, 10^−6M, and 10^−4M,) and 120-146QR (10^−10M, 10^−8M, 10^−6M, and 10^−4M) on HCEC chemotaxis was determined by the modified Boyden chemotaxis chamber method. HCEC chemotaxis was measured in response to HB-EGF, rCAP37, and peptides 120-146QH (SEQ ID NO:29) and 120-146QR (SEQ ID NO:28) after incubation for 3 hours at 37° C. Chemotaxis is expressed as a percent migration. The buffer control (no chemoattractant) is arbitrarily assigned the value of 100% migration. Data are expressed as means±SEM and are calculated from 6 observations for each test point. **P<0.01 by Wilcoxon signed-rank test as compared to controls.
Chemotaxis assays were performed using the modified Boyden chemotaxis chamber assay. Peptide 120-146QH was used at 10^−4 M, 10^−6 M, 10^−8 M, 10^−10 M, and 10^−12 M, and peptide 120-146QR was used at 10^−4 M, 10^−6M, 10^−8M, and 10^−10 M.

HCEC monolayers = experiment: In vitro scratch assay of wound closure in HCEC monolayers; assay type: cell-based, human
Protocol: An in vitro scratch assay was used in order to determine the ability of rCAP37 to facilitate corneal wound healing. Human corneal epithelial cells were cultured as described above until they reached a confluent monolayer. Each monolayer was scratched using a 10 μl pipette tip to create two perpendicular lines. Monolayers were treated with heparin binding-epidermal growth factor (HB-EGF, 250 ng/ml; Becton Dickinson), rCAP37 (25-2000 ng/ml), or basal KSFM (Gibco). Wound closure was monitored at 0, 18, 24, and 48 hours utilizing a camera-equipped inverted microscope (TE2000-E; Nikon, Melville, N.Y.). Time-lapse images of in vitro wound closure were obtained using a camera-equipped inverted microscope (TE2000-E; Nikon) from 0-18 hours. HCEC monolayers were treated with HB-EGF, rCAP37, and basal KSFM as described above. The width of each scratch was quantitated using ImageJ software (US National Institutes of Health, Bethesda, Md.). Results are presented as the percentage of wound closure.

Molecule: NQGRHFCGGALIHARFVMTAASSFQ [CAP3720-44ser42]
- solubility [1]: relatively insoluble

Molecule: NQGRHFCGGALIHARFVMTAASCFQ (listed as Homo sapiens) [CAP3720-44]
- solubility [1]: relatively insoluble

Molecule: C[C@H]1COc2c(N3CCN(C)CC3)c(F)cc3c(=O)c(C(=O)O)cn1c23 [Levofloxacin, reference compound]
- MIC of Levofloxacin in combination with peptide ([2]; in the presence of 3.04 μg/ml of the peptide BCC02-5RMP): 3.5 µg/mL

Molecule: NQGRHFSGGALIHARFVMTAASCFQ [CAP3720-44ser26]
- solubility [1]: relatively insoluble

Molecule: CO/N=C(\C(=O)N[C@@H]1C(=O)N2C(C(=O)O)=C(COC(C)=O)CS[C@H]12)c1csc(N)n1 [Cefotaxime, reference compound]
- bactericidal impact of antibiotic alone ([2]; 2.8 μg/ml): very little bactericidal impact

B1: heparin binding-epidermal growth factor (protein, UniProt Q99075 63-148, looked up)
Heparin-binding EGF-like …: DLQEADLDLLRVTLSSKPQALATPNKEEHGKRKKKGKGLGKKRDPCLRKYKDFCIHGECKYVKELRAPSCICHPGYHGERCHGLSL
notes: positive control growth factor
- closure of wounds compared to the buffer control (mouse cornea; 250 ng/ml at 0 and 16 hours): significantly higher
- migration of HCECs vs buffer control [3]: significant increase in migration
- time to complete closure of scratch wounds (HCEC monolayers; 250 ng/ml): ≤ 24 h
- percentage wound closure (HCEC monolayers; 250 ng/ml, at 18 hours): ~88%

B2: CAP37: cationic antimicrobial protein of Mr 37 kDa; recombinant CAP37 produced in HEK 293 cells (protein)
chain: IVGGRKARPRQFPFLASIQNQGRHFCGGALIHARFVMTAASCFQSQNPGVSTVVLGAYDLRRRERQSRQTFSISSMSENGYDPQQNLNDLMLLQLDREANLTSSVTILPLPLQNATVEAGTRCQVAGWGSQRSGGRLSRFPRFVNVTVTPEDQCRPNNVCTGVLTRRGGICNGDGGTPLVCEGLAHGVASFSLGPCGRGPDFFTRVALFRDWIDGVLNNPGP
- reduction of wound size (wound closure) (mouse cornea; 16 hours, 250 ng/ml topical at 0 and 16 hours): 71%
- re-epithelialization (H&E histology) vs vehicle-treated wounds (mouse cornea; 24 hours, 250 ng/ml): greatly accelerated
- wound closure (mouse cornea; 24 hours, 250 ng/ml topical at 0 and 16 hours): 83%
- structural integrity of epithelium (H&E histology) (mouse cornea; 48 hours, 250 ng/ml): regained full integrity
- migration of HCECs vs buffer control [3]: significant increase in migration
- percentage wound closure (HCEC monolayers; 250 ng/ml, at 18 hours): ~71%
- percentage wound closure (HCEC monolayers; 500 ng/ml): approximately 62%
